Assay results reported in US20170052184A1.
Like-named read-outs stand apart in the source and are kept apart here.

T1: HCV Core1-169 (HCV-1), P26664
T1 chain: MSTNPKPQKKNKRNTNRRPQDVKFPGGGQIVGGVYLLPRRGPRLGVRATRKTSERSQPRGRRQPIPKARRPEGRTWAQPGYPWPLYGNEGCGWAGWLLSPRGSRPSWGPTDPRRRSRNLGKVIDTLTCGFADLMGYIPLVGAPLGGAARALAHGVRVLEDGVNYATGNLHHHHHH

T2: HCV Core1-169 (hepatitis C virus (HCV-1)), P26664
T2 chain: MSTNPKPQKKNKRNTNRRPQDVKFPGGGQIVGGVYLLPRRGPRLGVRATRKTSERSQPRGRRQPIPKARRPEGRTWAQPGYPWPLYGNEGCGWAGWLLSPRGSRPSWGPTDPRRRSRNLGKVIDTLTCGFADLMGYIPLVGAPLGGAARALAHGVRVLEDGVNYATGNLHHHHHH

T3: HCV bt-134-154 (Peptide 1, HCVc 134-154) (Hepatitis C virus (numbering per HCV-1))
T3 sequence (peptide, biotin (carboxy-terminal per [p-0227]; N-terminal per [p-0050])): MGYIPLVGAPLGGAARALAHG

T4: HCV bt-141-161 (Peptide 2, HCVc 141-161) (Hepatitis C virus (numbering per HCV-1))
T4 sequence (peptide, biotin (carboxy-terminal per [p-0227]; N-terminal per [p-0050])): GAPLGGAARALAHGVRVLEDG

T5: HCV bt-151-171 (Peptide 3, HCVc 151-171) (Hepatitis C virus (numbering per HCV-1))
T5 sequence (peptide, biotin (carboxy-terminal per [p-0227]; N-terminal per [p-0050])): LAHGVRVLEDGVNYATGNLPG


Columns and labels:
[1] = target: T1, HCV Core1-169 (HCV-1), P26664; assay: EIA, core1-169 coated on plate; conditions: remark: other sources report otherwise
[2] = target: T2, HCV Core1-169 (hepatitis C virus …); assay: SPR sandwich, capture mAb C11-3; conditions: remark: other sources report otherwise
[3] = target: T2, HCV Core1-169 (hepatitis C virus …); assay: SPR sandwich, capture mAb C11-7; conditions: remark: other sources report otherwise
[4] = target: T2, HCV Core1-169 (hepatitis C virus …); assay: SPR sandwich, capture mAb C11-9; conditions: remark: other sources report otherwise
[5] = target: T2, HCV Core1-169 (hepatitis C virus …); assay: SPR sandwich, capture mAb C11-14; conditions: remark: other sources report otherwise
[6] = target: T1, HCV Core1-169 (HCV-1), P26664; assay: EIA, core1-169 captured by mAb 14-153-229; conditions: remark: other sources report otherwise
[7] = target: bovine serum albumin (bovine) (UniProt P02769); assay: EIA, BSA control
Sequence of bovine serum albumin (bovine) (P02769 25-607 limits assumed): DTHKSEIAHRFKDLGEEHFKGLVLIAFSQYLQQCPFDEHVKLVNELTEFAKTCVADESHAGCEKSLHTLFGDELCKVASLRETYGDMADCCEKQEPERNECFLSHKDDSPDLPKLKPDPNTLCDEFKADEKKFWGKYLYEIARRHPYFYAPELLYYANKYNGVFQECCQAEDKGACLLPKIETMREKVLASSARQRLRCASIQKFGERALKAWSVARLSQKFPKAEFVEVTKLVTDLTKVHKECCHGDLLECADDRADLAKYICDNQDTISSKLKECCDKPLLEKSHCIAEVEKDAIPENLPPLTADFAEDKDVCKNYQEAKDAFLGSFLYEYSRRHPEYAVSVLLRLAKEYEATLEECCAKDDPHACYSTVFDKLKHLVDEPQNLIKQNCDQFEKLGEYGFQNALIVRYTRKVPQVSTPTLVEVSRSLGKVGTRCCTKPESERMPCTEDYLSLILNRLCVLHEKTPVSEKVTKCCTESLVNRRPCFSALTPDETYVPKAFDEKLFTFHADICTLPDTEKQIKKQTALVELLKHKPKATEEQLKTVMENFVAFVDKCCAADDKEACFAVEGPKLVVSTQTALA

[8] = target: bovine serum albumin (BSA) (bovine) (UniProt P02769); assay: EIA, BSA background
Sequence of bovine serum albumin (BSA) (bovine) (P02769 25-607 limits assumed): as above

[9] = target: bovine serum albumin (BSA) (bovine) (UniProt P02769); assay: EIA, BSA background; remark: listed apart in the source
HCV Core1-169 (HCV-1) [10] = target: HCV Core1-169 (HCV-1) (UniProt P26664); assay: EIA, core1-169 coated on plate
[11] = target: HCV Core1-169 (hepatitis C virus (HCV-1)) (UniProt P26664); assay: SPR sandwich, capture mAb C11-3
[12] = target: HCV Core1-169 (hepatitis C virus (HCV-1)) (UniProt P26664); assay: SPR sandwich, capture mAb C11-7
[13] = target: HCV Core1-169 (hepatitis C virus (HCV-1)) (UniProt P26664); assay: SPR sandwich, capture mAb C11-9
[14] = target: HCV Core1-169 (hepatitis C virus (HCV-1)) (UniProt P26664); assay: SPR sandwich, capture mAb C11-14
[15] = target: T3, HCV bt-134-154 (Peptide 1, HCVc 134-154) (Hepatitis C virus (numbering per HCV-1)); assay: EIA, captured mAb + biotin peptide
[16] = target: T4, HCV bt-141-161 (Peptide 2, HCVc 141-161) (Hepatitis C virus (numbering per HCV-1)); assay: EIA, captured mAb + biotin peptide
[17] = target: T5, HCV bt-151-171 (Peptide 3, HCVc 151-171) (Hepatitis C virus (numbering per HCV-1)); assay: EIA, captured mAb + biotin peptide
HCV Core1-169 (HCV-1) [18] = target: HCV Core1-169 (HCV-1) (UniProt P26664); assay: EIA, core1-169 captured by mAb 14-153-229

| Binder | OD (A492) [1] [OD] | expected percent binding [2] [%] | expected percent binding [3] [%] | expected percent binding [4] [%] | expected percent binding [5] [%] | OD (A492) [6] [OD] | Reactivity (OD 492 nm) [7] [OD units] | OD (A492) [8] [OD] | OD (A492) [9] [OD] | OD (A492) (HCV Core1-169 (HCV-1) [10]) [OD] | expected percent binding [11] [%] | expected percent binding [12] [%] | expected percent binding [13] [%] | expected percent binding [14] [%] | Reactivity (OD 492 nm) [15] [OD units] | Reactivity (OD 492 nm) [16] [OD units] | Reactivity (OD 492 nm) [17] [OD units] | OD (A492) (HCV Core1-169 (HCV-1) [18]) [OD] |
| --- | --- | --- | --- | --- | --- | --- | --- | --- | --- | --- | --- | --- | --- | --- | --- | --- | --- | --- |
| HCV 208B-174 (antibody, V domains shown) VH: EVKLEESGGGLVQPGGSMKLSCVASGFSFSSYWMSWVRQSPEKGLDWVAEIRLRSDNYATHYAESVKGRFTISRDDSISRLYLQMNTLRAEDTGIYYCTWMTYWGQGTLVTVSA VL: QNVLTQSPAIMSASPGEKVTMSCSASSSVTYMFWYQLKPESSPRLLIYDTSNLASGVPVRFSGSGSGTSYSLTISRMEAEDAATYYCQEWSSYPLTFGAGTKLDLKR | 0.15 | 1.6 | 1.5 | < 1 | 1.6 | 0.75 | – | – | – | – | – | – | – | – | – | – | – | – |
| HCV 208A-967 (antibody, V domains shown) VH: QVQLEESGPGLVAPSQSLSITCTVSGFSLTSYGVHWVRQPPGKGLEWLGVIWAVGSINYNSALMSRLSISKDNSKSQVFLKMNSLRTDDTAMYYCARDRTTATPFFDYWGQGTTLTVSS VL: DIVLTQSPASLAGSLGKRAPISCKASESVNFFGTNLIHWYQQKPGQPPKLLIYHASNLKTGVPARFRGRGSKTNFPLPIDPVEENDVAIYYCLQNRKIPLTFGVGTKLELKR | – | – | – | – | – | – | 0.07 | 1.3 | 0.15 | 1.08 | < 1 | < 1 | < 1 | < 1 | 0.52 | 0.73 | 0.18 | 0.18 |
| HCV 208A-983 (antibody, V domains shown) VH: QGQMQQSGAELVKPGASVKLSCKTSGFTFSSSYFSWLKQKPGQSLEWIAWIYAGTGNTIYNQKFTDKAQLTVDTASSTAFMQLSSLTIEDSAIYYCAISGTGFTYWGQGTLVTVSA VL: DVLMTQTPLSLPVNLGDQASISCRSSQSLLHSNGNTYLEWFLQKPGQSPKLLIYNVSNRFSGVPDRFSGSGSGTDFTLKISRVEAEDLGVYYCFQGSHVPFTFGSGTKLAIKR | 0.12 | < 1 | < 1 | < 1 | < 1 | 0.64 | – | – | – | – | – | – | – | – | – | – | – | – |
| HCV 208B-471 (antibody, V domains shown) VH: QGQLQQSGPVLVKPGASEILYCKTSGFTFSSTYISWLKQKPGQSLEWIAWIYAGTGATNYNQKFTGKAQLTVDASSNTAYMHFSGLTPEDSAIYYCAISGAGVYWGQGTLVTVSA VL: DVVMTQTPLSLPVSLGDQASISCRSSQSLLHSNGNTYLEWYLQKPGQSPNLLIYNVSNRFSGVPDRFSGSGSGTDFALKISRVGAEDLGVYYCFQGSHVPLTFGAGTKLELKR | 0.24 | < 1 | < 1 | < 1 | < 1 | 0.35 | – | – | – | – | – | – | – | – | – | – | – | – |
